# Measured values reported in the nanobody polyreactivity screen of Harvey et al. (2022).
# Assay: yeast display, Sf9 membrane polyspecificity reagent, FACS + sequencing; frameworks hold sequencing errors
# Method in brief: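 In a synthetic yeast display library (Saccharomyces cerevisiae BJ5465), nanobody expression was induced with galactose for 36–48 hours. FACS gates were set low and high (top ~1%) using anti-HA fluorescence for expression and streptavidin fluorescence for binding of the Sf9 membrane reagent. Each polyreactivity label is drawn from the gate of origin.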
row,Sequence,polyreactivity (PSR sort gate)
1,QVQLVESGGGVVQAGGSLRLSCAASGGTFGKYAMGWYRQAPGNEREFVAAISKSGGSTFYADSVKGRFTISRDNAKNTVYLQMNSLKPEDTAVYYCAVRWYYRGRSLYDYWGQGTQVTVSS,high polyreactivity
2,QVQLVESGGGVVQAGGSLRLSCAASGRIFGGYAMGWYRQAPGKERELVAAISGSGGRTDYADSVKGRFTISRDNAKNTVYLQMNSLKPDDTAVYYCNKGYVYGHEYWGQGTQVTVSS,high polyreactivity
3,QVQLVESGGGVVQAGGSLRLSCAASGRIFLTNALGWYRQAPGKVREVVADISRGGSTYADSVKGRFTISRDTAKNTVYLQMTSLKPEDTAVDYCAADEYSPGDSRTRYAYWGQGTQVPVSS,low polyreactivity
4,QVQLVESGGGVVQAGGSLRLSCAASGRIFRYYTMGWYRQAPGKERELVAAITSSGGSTYYADSVKGRFTISRDNAKNTVYLQMNSLKPEDTAVYYCATRSYVFAWEFNYWGQGSQVTVSS,high polyreactivity
5,QVQLVESGGGVVQAGGSLRLSCAASGRIFYKYAMGWYRQAPGKAREFVATISSSGGSTYYADSVKGRFTISRDNAKNTAYLQMNSLKPEDTAVYYCAARYGRVTREYWGQGTQVTVSS,high polyreactivity
6,QVQLVESGGGVVQAGGSLRLSCAASGRTFGSNAMGWYRQAPGKERELVAGITTSGGSTNYADSVKGRFTISRDNAKNTVYLQMNSLKPEETAVYFCAVANYGIGYPHYIFDYWGQGTQVTVSS,low polyreactivity
7,QVQLVESGGGVVQAGGSLRLSCAASGRTFRSYAMGWYRQAPGKERELVAAISWSGGSTYYADSVKGRFTISRDNAKNTVYLQMNSLKPEDTAVYYCAATVGQRKYQLGYWGQGTQVTVSS,high polyreactivity
8,QVQLVESGGGVVQAGGSLRLSCAASGSIFAGIAMGWYRQAPGKERELVADITSGDSTYYADSLKGRFTISRDNAKNTVYLQMNSLTPEDTAVYYCNNQLRVPQGAFFWFHGMDYWGQGTQVTVSS,low polyreactivity
9,QVQLVESGGGVVQAGGSLRLSCAASGSIFTYYAMGWYRQAPGKERELVAAISYGGGSTNYADSVKGRFTISRDNAKYTVYLQMNSLKPEDTAVYYCNRVLGVNYGYWGQGTQVTVSS,high polyreactivity
10,QVQLVESGGGVVQAGGSLRLSCAASGSNFDRNAMGWYRQAPGKERELVAAISRSGGSTNYADSVKGRFTISRDNAKNTFYLQMNSLKPEVTAVYYCAAVRTHWFGQGWAVYWFEYWGQGTQVTVSS,low polyreactivity
11,QVQLVESGGGVVQAGGSLRLSCAASGSTFLPYAMGWYRQAPGKERELVAAITWRTGSTYYADSVKGRFTSSRDNAQNTVYLQMNSLKPEDTAVYYCNAKQRGKFDYWGQGTQVTVSS,low polyreactivity
12,QVQLVESGGGVVQAGGSLRLSCAASGSTFSAYTMGWYRQAPGKERELVAAISRSGVSTYYADSVKGRFTISRDNAKNTVYLQMNSLKPEDTAVYYCAAPYFVSYQGYDYCGQGTQVTVSS,high polyreactivity
13,QVQLVESGGGVVQAGGSLRLSCAASGSTFYSYAMGWYRQAPGKERELVAAISSGGGRTYYADSVKGRFTISRDNAKNTVYLQMNSLKPEDTAVYYCAASYWYRDYYYWGQGTQVTVSS,high polyreactivity
14,QVQLVESGGGVVQAGGSLRLSCAASGSTLVVNGLGWYRQAPGKDRELVAAISWSGGTTYYADSVKGRFTISRDNAKNTVDLQMNSLKPEDTAVYYCAADSYTEVDYWGQGTQVTVSS,low polyreactivity
15,QVQLVESGGGVVQAGGSLRLSGAASGITFSVNAMGWYRPAPGKEREFVAAISSSGGSTYYADSVKGRFTISRDNAKNTVYLQMNSLKPEDTAVYYCAVDYYSYYYEDDYWGQGTQVTVSS,high polyreactivity
16,QVQLVESGGGVVQAGGSLRLSSAASGIIFKRYAMGWYRQAPGKEREFVAAISRSGVRTYYADSVKGRFTISRDNAKNTVFLQMNSLNPEDTAVYYCAAEFANYRDTGESVYWFYYWGQGTQVTVSS,high polyreactivity
17,QVQLVESGGGVVQAGGTLRLSCAASGSLFPYNVMGWYRQAPGKERELVAVITGSTGRTYYADSVKGRFTISRDNAKNTVYLQMNSLKPEDTAVYYCAKRSYWAPYDYWGQGTQVTVSS,high polyreactivity
18,QVQLVESGGGVVQAGRSLRISCAASGSTFRGYAMGWYRQAPGKDRELVATISGSDGTTYYADSVKGRFTISRDYAKNTVYLQMNCLNPEDTAVFYCDAGESFEMYYWGQGSQVTVSS,low polyreactivity
19,QVQLVESGGGVVQAGRSLRLSCAASGRLFVRNAMGWYRQAPGKDRELVAAITSVGDTYYADSVKGRFTISRDNAKNTVYLQMNSLKPVDTAVYYCAVYLWSGWGYPEYNYWGQGTQVTVSS,low polyreactivity
20,QVQLVESGGLLVQAGGSLRLRGAASGSTIPRNAMGWYRQAPGKERELVASITSDGGSTYYADSVKGRFTISRDNAQITVYLQMNSLNPEDTAVYYFNAYTRYGLFAYDYWGQGTQVTVSS,high polyreactivity
21,QVQLVESGGPIVQAGGSLRISCAASGRTYAYKTMGWSRQAPGKERELVAGINSSGGSTYYADSVKGRFTISRDNAKNTVYLQMNSLKPEDTAVYDCAADNSPRPYDSWGQGTQVTVSS,high polyreactivity
22,QVQLVESGGRLFQAGGSLRLSCAASGRSYRYYAMGGYTKAPGKERELFAAISSGTRTNYADSVKGRFTISRDNAKNTVYFQMNSLKPEDTAVYYCKADGYRGYYGRNKSKYDFWGQGTQVTVSS,high polyreactivity

row,Sequence,polyreactivity (PSR sort gate)
1,QVQLVESGGRLLQAGGSLRLSCAASGYTIDPYDMGWYRQAPGKERELVASISWSGGDTYYADSVKGRFSISRDNAKNTVYLQMNRLKPEDPAVYYCAADPGYAANRTEWRDFDYWGQGTQVTVSS,low polyreactivity
2,QVQLVESGGRLVEAGGSLSLSWAASGRIFPKYPMGWYRQAPGKERELVAAISRRGSSTYYADSVQGRFTISRDNAKNTVYLQMNSLTPEDTAVYYCATDARDGHDYWGQGSQVTVSS,high polyreactivity
3,QVQLVESGGRLVHAGGSLRISCAASGSILTRNAMGWYRPAPGKERELVAASTKRGGTTYYADSVKGRFTISRDNAKNTVYLQMNSLKQEDNAVYYCAARNGGRFSFEFNYWGQGTQVTVSS,high polyreactivity
4,QVQLVESGGRLVKAGGSLRLSCAASGRTFSSYAMGWYRHAPGKERELVAAISSGGSTYYADSVKGRFTISRDNAKNTVYILMNSQIPEDTAVYYCNRRLYYKIGRGFSYYWGQGTQVTVSS,high polyreactivity
5,QVQLVESGGRLVQAGASLRLSCAASGFTLHWYAMGWYRQAPGKERELVASITNTGRTYYADSVKGRFTISRDNAKNTVYLQINILKPEDTAVYYCAAGTQYSHYYVADYCRDYWGQGTQVTVSS,high polyreactivity
6,QVQLVESGGRLVQAGGILRLSCAASGIIFKDYAMGWYRQATGKERELVAAISWSGSSTYYADSVKGRFTISRDNAKNTVYLQMNSLKPEDTAVYYCNAFPGDYRYDYWGQGTQVTVSS,high polyreactivity
7,QVQLVESGGRLVQAGGRLRLSCDASGYIISSYVMGWYRQAHGKDKELVAAINRRGGSTYYADSVKGRFTISRDNAKNTVYLQMNSLKPEDTAVYYCAADGLSGYGSGGYYGMGYWGQGTQVTVSS,high polyreactivity
8,QVQLVESGGRLVQAGGSIRLSCAASGGIFTAYAMGCYRQAPGKEREFVAGIDRSGGRTYYADSVKGRFTISRDNAKNNVYLQMNSLKPEDTAVYYCYARGYVYQNQLYYYWGQGSQVTVSS,high polyreactivity
9,QVQLVESGGRLVQAGGSLRLRGAASGNTNIPNAMGWYRQAPGKERELLAAIRASGGSTYYADSVKGRFTISRDNAKNTVYFQLNSLKTEDTSVYYCNADIWYKTYDYWGQGTQVTVSS,low polyreactivity
10,QVQLVESGGRLVQAGGSLRLSCAASGFIFCLNAMGWYRHAQGKERELVATIDNSGGSTYADSVKGRFTISRDNAKNTVYLQMNSLKPEVTAVYYCARDDGLLSYGYWGQGTQVTVSS,low polyreactivity
11,QVQLVESGGRLVQAGGSLRLSCAASGFIFVDYAMGWYRQAPGKERELVAAITYDGGSTYYADSVKGRFTISRDNAKNTVYLPMNSLKPEDTAVYYCATQGLWIFVVVEMDYWGQGTQVTVSS,low polyreactivity
12,QVQLVESGGRLVQAGGSLRLSCAASGFSFRGNAMGWYRQAPGKERELVATISRGGNTNYADSVKGRFTISRDNAKNTVYLQMNSLKPEDTAVYYCAAVSYIRSKVAYNYWGQGTQVTVSS,low polyreactivity
13,QVQLVESGGRLVQAGGSLRLSCAASGFTFDSYDMGWYRQEPGKERELVAAITWSGGSTYYADSVKGRFTISRDNAKNTVYLQMNSLKPEDTAVYYCNADTGTYWVPWYHDGYDYWGQGTQVTVSS,low polyreactivity
14,QVQLVESGGRLVQAGGSLRLSCAASGFTFGENAMGWYRQAPGKERELVAAITSGDGTSYADSVKGRFTISRDNAKNTVYLQMNSLKPEDTAVYYCAADGGDELYYSTYDYWGQGTQVTVSS,low polyreactivity
15,QVQLVESGGRLVQAGGSLRLSCAASGFTFWNYAMGWYRQAPGKERELVAAISRSGTSTYYADSVKGRFTISRDYAKNTVYLQMNSLKPEDTAVYYCNVLRVKSITYLMDYWGQGTQVTVSS,high polyreactivity
16,QVQLVESGGRLVQAGGSLRLSCAASGIIFRFYPMGWSRQAPGKERELVAAIRTSGGSTYYADSVKGRFTISRDNAKNTVYLQMNSLKPEDTAVYYCAAGPRAYSYRIYALYYWGQGTQVTVSS,high polyreactivity
17,QVQLVESGGRLVQAGGSLRLSCAASGITIRWYAKGWYRQAPGKERELVSRIDGRGASTYADSVKGRFTSSRDNAKNTVYLQMNRLKPEDTAVYYCAVAQVRVSYLWVRKFYYWGQGTQVTVSS,high polyreactivity
18,QVQLVESGGRLVQAGGSLRLSCAASGLIFVHYAMGWYRQSPGKERELVAAISAGGGSTYYADSVKGRFTISRDNAKNTVYLQMNSLKPEDTAVYYCNARVVNYVRPRTGAREYDFWGQGTQVTVSS,high polyreactivity
19,QVQLVESGGRLVQAGGSLRLSCAASGRIFGYYAMGWYRQAPGKERELVAAISSGGNTYYADSVKGRFTISRDNAKNTVYLQMNSLKPEDTAVYYCNEVYVGWQYGYDYWGQGTQVTVSS,low polyreactivity
20,QVQLVESGGRLVQAGGSLRLSCAASGRIFNRYAMGWYRQAPGKERELVAAITRGGSTYYADSVKGRFTMSRDNAKITVYLQMNSLKPEDSAVYYCAGRVGYPYYYWGQGTQVTVSS,high polyreactivity
21,QVQLVESGGRLVQAGGSLRLSCAASGRIFSRNAMGWYRQAPGKERELVAGISARGGRTYYADSVKGRFTISRDNAKNTVYLQMNSLKPEDTAVYYCAASFSAIRGGVRVTIDYYWGQGTQVTVSS,high polyreactivity
